According to PMC5852647, “Structural basis of siRNA recognition by TRBP double‐stranded RNA binding domains”:
Where a chain is given by its changes, count along the chain named.

Columns and labels:
TRBP dsRBD12 M100C/C158S = biological target: T1, TRBP dsRBD12 M100C/C158S (human, UniProt Q15633 16-158+=T+159-227, C73A;M100C;C158S;C196V;internal_change); test: single-molecule FRET; 25 mM KCl; two configurations; smFRET: 20 mM Tris-HCl pH 7.4, 125 mM KCl (affinity) or 25 mM KCl (orientation), 15 nM BSA, 0.001% Tween-20, 295 K; NMR buffer not in material; conditions: protein: recombinant; tags: CF660R at C100; label: Cy3B at 3' end of EL86down; 19 bp, 3' overhang 2 nt (UU) on both strands
T1 sequence: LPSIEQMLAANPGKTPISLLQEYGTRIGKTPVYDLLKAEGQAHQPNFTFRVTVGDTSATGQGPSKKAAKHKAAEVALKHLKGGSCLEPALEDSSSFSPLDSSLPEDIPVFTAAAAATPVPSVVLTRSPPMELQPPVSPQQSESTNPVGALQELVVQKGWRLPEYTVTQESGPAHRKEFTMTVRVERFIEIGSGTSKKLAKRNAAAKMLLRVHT

TRBP dsRBD12 M100S = biological target: T2, TRBP dsRBD12 M100S (human, UniProt Q15633 16-158+=T+159-227, C73A;M100S;C196V;internal_change); test: as above; conditions: protein: recombinant; tags: CF660R at C158; label: Cy3B at 3' end of EL86down; 19 bp, 3' overhang 2 nt (UU) on both strands
T2 sequence: T1 sequence with C85S, S143C

[1] = biological target: T3, TRBP dsRBD12 Cy3B-CF660R (doubly labeled) (human, UniProt Q15633 16-158+=T+159-227, C73A;M100C;C196V;internal_change); test: single-molecule FRET titration; 125 mM KCl, 20 mM Tris-HCl pH 7.4, 295 K; smFRET: 20 mM Tris-HCl pH 7.4, 125 mM KCl (affinity) or 25 mM KCl (orientation), 15 nM BSA, 0.001% Tween-20, 295 K; NMR buffer not in material; conditions: protein: recombinant; tags: Cy3B and CF660R at C100 and C158; pET47b(+)-based vector; 19 bp, 3' overhang 2 nt (UU) on both strands
T3 sequence: T1 sequence with S143C

B1: EL86 siRNA, Cy3B-labeled (dsRNA)
RNA 1: UUAAUUAUCUAUUCCGUACUU
RNA 2: GUACGGAAUAGAUAAUUAAUU
modifications: 3' biotin on EL86up; 3' amino modifier on EL86down
- binding result (TRBP dsRBD12 M100C/C158S): binds
- binding result (TRBP dsRBD12 M100S): binds

B2: EL86 siRNA (dsRNA)
RNA 1: UUAAUUAUCUAUUCCGUACUU
RNA 2: GUACGGAAUAGAUAAUUAAUU
- Kd [1]: 0.21 ± 0.03 nM
